Data from publication PMC7217966.

Experiments:
CsgG-6xHis (E. coli) = CsgG-6xHis (E. coli) (UniProt P0AEA2); test: SPR; Biacore 3000, NTA sensor chip activated with NiSO4; CsgG-His (200 nM) immobilised via the His-tag; N22 peptide injected at 50 μl/min, 20 − 1 nM; 10 mM HEPES, 150 mM NaCl, 0.36 mM DDM, pH 8.0; non-activated reference flow cell; 1:1 binding model
CsgG (Escherichia coli) = CsgG (Escherichia coli) (UniProt P0AEA2); details: cited from earlier work

CsgA N22 peptide
Kd (CsgG-6xHis (E. coli)): 0.53 µM

CsgA N6 peptide N6 (from UniProt P28307)
Kd (CsgG (Escherichia coli)): 28.3 µM
